Laboratory results: the DeepSol protein solubility set

Experiment: soluble on expression in E. coli; label from the status in PepcDB or PDB records
For “MGASGRICTVVPVEDAGEAAMLALSSPTGCVELRLDFYPGDPGEALELLATRLHSPARVVVTLRSAGHGGLDRRARGERRAVLARLEDLAPEGWLVDYEVEDLHASSGCSGCIASSHPTTPPTPRRALEEAAVAERLGASAYKLVYPGVEPWEQAAAARLVAEAGGFATSFTLGPGTLASRLTALALGAPLVFGSHPRAPLDGVPQSSEIMELYLRMGLGES”, the “soluble on expression in E. coli” value was “not soluble”. For “MSSQKSSHHKADSKMEQDNNRKAWISQPSGLNFVWGGDSRYWVIPKEPRMPAELKMVSWLEVTGSFDKIEPGKTYRIGFKISFKPDATGWDKAPVFMSAKIGKKGKTVWKRIKSVSQNFGILKGGSEPVNIPDESDGLFEILVSPTALNQDTKLQFGLYEVWTGRWKTGLLIHEAFVQEV”, the “soluble on expression in E. coli” value was “soluble”. For “MGSDKIHHHHHHMSELITTGVDIGSGCIKTVVFKVNGDKVEWLGKETSRIRNRDPFQLTTETYNHMLKSAGVDAKDVAYVASTGDAENLSFATGHFYSMTTHGRGGLYLNPEARAVLDIGALNGRAIRMDGVGKVLSYKMTSQCASGSGQFLENIARYLGIAQDEIGSLSMKADDPEKVSSICAVLAETDVINMVSRGISASNILKGIHVSMAVRLAKLLKSIGAVDGIVQVTGGLALDTGLVAALNEAAEQEKVNLKAVSHPDSIYAGAIGAALWGAFRHEKLARLGQAA”, the “soluble on expression in E. coli” value was “not soluble”. For “MVSDISNSRILRRRSSTFTDPTNLLAVHELRSRILQDPAISVKHLSDDVHRIRHEDWWLDRFLGSVNYDVDIAYAIMLECLKWRRNFEVDRISLLSLKPLLDNQLMYLHGKDLQNRHMLWIMMNKYKNGDDGFEKLFTFWIERHYMEYKGCQPLTVFIDMTGTGLKNMSFDAMKFIIHSSKYYYPNSIESILIFENPAILNASWKVIGSWLESSAASQRHDLLTFVTKLSVTHYVPKSHLLEHQGGTDTFKFTMDELAKCLPPPPPPKPSPKLLQQRMHSIDDSTNNNNVKFDEESTTKRAPSLSRRSSRGPKSRKSHIPPSLRPLIENRVNAPSDDWSSNDFVSITPRDELRLEKLDGENDLLDVVLVKNQSSDTPIMFKFKTTSPEKFRVRPSSGIVQPGTTEIIRVYLQYGESTDTRGTKKSFCFLQWNRHQQTLKASLNSSNQQATRQNSNSNVDCQKI”, the “soluble on expression in E. coli” value was “not soluble”. For “MDNGHIEETNNVEIDPATGGAVMSFSYASDFPTLPDAAPASAPTAKQTHVWSRPTLSKSEVNITFRLASDERSNKVKSFGSTSEESKKAQAIATATKTRIELSESKDGELTVVVKGERAKAEEARARIIRDLQTQASREIDIPKDHHGRLIGKEGALLRNLEAETNCRIQIPNRDGPSSKITITGPREGIQRAAAHILAVSEREAKLATEHIVCPKNLVAFVRGPKNETYDRLTQNNGVKINIPPPHVTNEVISVTGEKDGVLRVAAEIRQIIESKKNVSSIQVAVARTQHRYIVGQSRSGIHDVLQKTGCVVEVPAEDSGSDQVTLIGNAQDLAKALALVIERASSVVTQSISAPNWLHKHLIGPKGATLTALVPNRNNVQIEFDNSNQIFLEGSPEEVKLAFEPLSKEVARLQMELAIEKVKVHPTLHRHVIGRGGSLISKIKDQHGVQITIPNEETNSDEIVVEGKKEGVKKAVTEIRAIVTKIENEKSRDIIIPQRLHKLIIGSKGSGVQVIRDSHPNVSVVFPDAKSKSDVVNIRGDKTEVDAVYKKLTALSKEYAENNYQQTVAIFKEFLKHIVGKGGASIRKLRDETETRIDLPESGSDDGKITVTGKQANVEKAVAQLNKIQEELANVAEESIEIPQKVQSRFFGNGRRLISDIEDECGGVHIRFPSEKSESTKVTIRGPAGDVAKAVGLLSALAKDKEENYVEDTVKAKPEFHRFLIGKGGSKIAKLRDTLNVRVMFPKEGDAEKETIHLLGKKEDVPKAKAALEDAIKQLSETVDIKITVDPKYYKNFLARGAALVKEIQEQNGGVVISFPKNGTDSSEVSIRGSKQCVEAAKNRIEDVVEDYEKQITDNVTIPAQFHRGLLAGRGAKIHELQSKYNVSIRFPNNREEGSEGSDQVTVSGRDTKVEEAKEALLAMVPISKVIQLPVDMHRSIIGRGGETVRKLMQDYDVNISIPKDNSSEDITVTGQTENVDQALEALRGKLGEYEAQAEDRKLKQWSMSINVPTDYHQKIIGQRGATITALKEKYGVIINVPREDGNETITIQGYEEKANECAAAIEEMISELRSMFTQEISLDARYHPRLIGQRGKNLKKVMEDYRVEIRLPRQGAEDPNLVVVAGKDENDVYDCIDHLRAEEEEFLLDNVERTQYMSPRQQESNNTRHHQQPTSVQMKGAPWQLDLGSSEQFPDMGPAAGSSAAVGGAGAWGSSRRW”, the “soluble on expression in E. coli” value was “not soluble”. With “MNSFYSQEELKKIGFLSVGKNVLISKKASIYNPGVISVGNNVRIDDFCILSGKVTIGSYSHIAAYTALYGGEVGIEMYDFANISSRTIVYAAIDDFSGNALMGPTIPNQYKNVKTGKVILKKHVIIGAHSIIFPNVVIGEGVAVGAMSMVKESLDDWYIYVGVPVRKIKA” the “soluble on expression in E. coli” value was “soluble”. For “MVLARREALDPRYQYDAALAAAKKGEAAIAVPAGVMIAGYWPIRSEIDPRPLLSAFRAKGARLCLPVVLDAETIAFREFLPDAELVPTGFGTMGPDEHAPLVDPAIMLMPLAGFDRLGHRLGYGAGHYDRALARFAERGLQPLLIGMAFDCQEVDYVPNEPHDIALHQILTESGLRSRAMDLEHHHHHH”, the “soluble on expression in E. coli” value was “not soluble”. For “MKIISAEQVHQNLNFEELIPLLKQSFSRPFSMPQRQVYSLAPEQSENHDAFALLPSWNEEVIGNKAFTYFPDNAKKHDLPGLFSKIMLFKRQTGEPLALVDGTSVTYWRTAAISALASQLLSRKNSQHLMLFGTGNLASYLVKAHLTVRDIKQVTLWGRNAKKVSKLIADFSILYPAVTFKTSVDVNAEVASADIICCATGAKTPLFDGNSVSAGCHIDCLGNHMTDARECDTTTILRARVFVDSLTNTLNEAGELLIPMAEDAFNKDEIVGELADMCKTPSMLRQSSDEITLFKSVGTAISDLVAAHSVVEKLAD”, the “soluble on expression in E. coli” value was “not soluble”. In the case of “MSLSNSLLPPNASGLERDIEQVIVQSTDLPIRIKDLWNPYSCHLSLLPWLAWALSVDEWDDRWPEHIKRQVVQDSFDVHRFKGTPYAVQKALDSLNIKTHLREWWEPDGSQEPGTMTVVALINENLTDDDNGLITEAMLEQVTRVIHTAKRGVIHFDVELGISLDETLGFSGAIGPSIAEIDFSSDFLPIVPEKGSADMAFSAALYGIGSADFLADMSGVVPDESSSHVFVCGGLAGISASWLEFEGDLEGHHHHHH”, the “soluble on expression in E. coli” value is reported as “soluble”. With “MGSDKIHHHHHHMTKRHTETKAYVKTALTTLLTEQSFETLTVSDLTKKAGINRGTFYLHYTDKFDMMNHFKNDTLDDLYRLLNQAEIYTDTRQVLNQTLSYLIEHREFITALATISYLKFPQLIKDFCYQFLTTITGFQDIVTNQYHIPYPYALEVYLASIESIISYWIANGYQETTEEVADIILKAVTLDN” the “soluble on expression in E. coli” value was “not soluble”. In the case of “MSLDRVTISHMADALGVTKSTVSRAMNGYPDISEATQLRVKRMAEKMGYQPLSHAQAIKTGRARSLGLVLQFSDHDAQRPFLAEFLAGLSAGAHTDGWTLTVAAADGHDELIETFRAILRDGKADGFILPRAMSTDPRVYLLRDAGVPFVLFGRQDKEEGCAWFDVLGEEAMCDAVLHLATLGHRRIGFINGGLQYAYARLRAAGFADGMQIAGLEMDDSLIADDAMTMESGAVAAARILDTTNPPTALVCAVDFAALGAYRAAADRGIIIGRDLSIIGYDGIPEGAFAHPPLTTFAVDNRAAGFALATLLIQRIKGEPLETLRRLVPATFVERASTGEGHHHHHH”, the “soluble on expression in E. coli” value is reported as “not soluble”. In the case of “MKLSQQSQAIIESAIQKAINKYTCGCEQTIVTDIHIQPNQNSGELFIYDDEDEELSSVTIDEWTAYEGDDFCEDAERIFRTVLCRMKENGSFDKLTILKPYSFVLVDEDKETISELLLVDDDTLLVNDELLKGLDKELDDFLKDLLEKLEHHHHHH”, the “soluble on expression in E. coli” value is reported as “soluble”. For “MAPAPAAEFWEARYRDTGRVWSGRPNELLVQEAGGLAPGTALDLGCGEGADAVWLASRGWRVTGVDISATALERAAGHADGAGVGDRVLWERHELGPSFPEGSFDLVSAHYLQSPVALDQQAVLRAAARAVAPGGTLLVVMHAGWPSWQTEPPFDAAFPTLDGVLAELALPEGEWSVETRRTARRPLEHHHHHH”, the “soluble on expression in E. coli” value was “not soluble”. In the case of “MEINQKREEEDDDEMEWRRDGVKRDSNDFSNYCRQRSLSSDATIMSRQFFVYLIFHVLIDNVIARAPFTRDRPRGLGLLQLPTGMTDERSGPFFPGLYIAGDKAGQKPQTVPDVSLPGQTASFTGRSAFNPFTHMVSAVYTEDLVDAWGAGFAVNGVNNHGLNVRKNFDAFADAPLSSSDGMYQPFLSAASIGSEYDFSKIREVSGNFNLPIPGVNELFDFDGRFMVKGGGNGILNSAMEFPLTLSDPNERAPYTFKYLNYMADRHMHYGHVVPNVNLFVVGKDKIMERLMQNRLNPTMVG”, the “soluble on expression in E. coli” value is reported as “not soluble”. For “MSVAETEIPIPAATPSLTDACVHCGFCLSDCPSYRVLGRETDSPRGRVYLMDSLQQGRIELSDTVVEHFDTCLGCLACTSACPSGVQYDQLIEEMRQRIAQEHRRPWPEAIWRKLLEHHHHHH”, the “soluble on expression in E. coli” value was “not soluble”. With “MSLAYDNVMKDKKIRVGLMTDSIPGGFYNEKGEWGGFDYDIATEIAKRMGVDIERVQVNNKTRIAYVQQGRVDISVSNMTHTRERDKSVDFSITYFFDGQKVLAKKGQFKSVKDMVGKKIATMQGTTSEVNVKRALKEAGDPNPDQSVISFQKESECFQALQMGRVAGWSTDASILVGYSAKEPGKFELVGNFLAEEPYGIAMPQDDSALRDAVNAALQDMWKDGTYKTIYNKWYGPGTPFEMPLAGQIEMWPEGHHHHHH” the “soluble on expression in E. coli” value was “soluble”. With “MDMPKPPFVIYKGKVEEEFARLHKDGKSLLKAESKFVQFLGLQELTDRACDHVELANPTKNTIIFNIRTPTSPCFFVKPHVGMIDPGGKATLYFTFKGRCHRVPSDYCWIYSIYQLVVDEKTTAFIKEDEFSSQNLRSAWIKHGRKQVNNILHLASSFKAGKPKFECRDGHRKFLERKIYLNDLGDVENSGKSKTENTTDITPANMKKGKLNKAASSDTMDDLPKTAD” the “soluble on expression in E. coli” value was “not soluble”. With “AATSRTERIWPGGVIPYVIGGNFTGSQRAMFKQAMRHWEKHTCVTFIERSDEESYIVFTYRPCGCCSYVGRRGNGPQAISIGKNCDKFGIVVHELGHVIGFWHEHTRPDRDNHVTIIRENIQPGQEYNFLKMEPGEVNSLGERYDFDSIMHYARNTFSRGMFLDTILPSRDDNGIRPAIGQRTRLSKGDIAQARKLYRCPA” the “soluble on expression in E. coli” value was “soluble”. For “NVSVLNFGNTPVSFRQDGFLNATAIASHFGKLPKDYLKSEQTQQYISALAENLSVRRKILTEANQIVIVKRGGSEQGTWLHPKLAIHFARWLNPKFAVWCDEQIEILLNGKISDGI”, the “soluble on expression in E. coli” value was “soluble”. For “ADVYDIGRGAVMYVAGGKVSWAPRGGNEVKFEPVPKELKLVANRLHTSFPPHHVVDMSKFTFITPGSGVSMRVEYQYGCLPADTVPEGNCWWRLLDSLPPEVQYKEIRHANQFGYQTKHGVPGKYLQRRLQVNGLRAVTDTHGPIVIQYFSVKESWIRHLKLVEEPSLPGFEDLLRIRVEPNTSPLAGKDEKIFRFGSHKWYG”, the “soluble on expression in E. coli” value was “soluble”. With “MGSDKIHHHHHHMHRLPPLRAIQVFDSVARNQSFSIAASQLAITQGAVSKQVKLLEEFYAEKLFIRCGTNIELTKKGTWLAYQLTPIFDQLNGICNFNSISRGKIRIATYPSLSLGYLTYEIEQFNSAHPNIDVEIILAINHPTMCDEIADLFITTEESIDGYHYQQLFQERLIPVISPKIINDTTIIKIKDLTGYTLLVTNGKENSDWQLWFNHHNLKPAIYQKMNMFSDALLSTRAAELGNGIALSCEVTAHRDIIDGRLCKVGLPSAPTGRRYFLCCKNRRRYEPNIKLLSDWINKKFIND” the “soluble on expression in E. coli” value was “not soluble”.
